Measured values: patent US20080213836A1

Experiments:
[1] = molecular target: Medaka EP-1 serine protease domain (wild-type) (Oryzias latipes (Japanese Medaka)); assay: cell-based or functional assay
[2] = molecular target: Medaka EP-2 serine protease domain (Oryzias latipes (Japanese Medaka)); assay: cell-based or functional assay

Chain of Medaka EP-1 serine protease domain (wild-type) (Oryzias latipes (Japanese Medaka)) (chain, as listed by the source limits assumed): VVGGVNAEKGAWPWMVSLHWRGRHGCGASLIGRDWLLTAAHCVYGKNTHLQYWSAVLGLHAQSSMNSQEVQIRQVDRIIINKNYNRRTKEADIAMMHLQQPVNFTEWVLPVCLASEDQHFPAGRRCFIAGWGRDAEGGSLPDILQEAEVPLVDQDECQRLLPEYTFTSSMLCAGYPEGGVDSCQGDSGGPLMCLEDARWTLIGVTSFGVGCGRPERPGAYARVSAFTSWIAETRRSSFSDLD

Inhibition (%) of GD4K-βNA hydrolysis at 0.1 mg/ml [1]: 99%
Inhibition (%) of GD4K-βNA hydrolysis at 0.1 mg/ml [2]: 99%
Substance: SBTI (from UniProt P01070 25-205)
